The data set deals with T1, Atu1419-H3A H141A;H192A;H214A (Agrobacterium fabrum C58) (UniProt A9CJ36).
T1 sequence: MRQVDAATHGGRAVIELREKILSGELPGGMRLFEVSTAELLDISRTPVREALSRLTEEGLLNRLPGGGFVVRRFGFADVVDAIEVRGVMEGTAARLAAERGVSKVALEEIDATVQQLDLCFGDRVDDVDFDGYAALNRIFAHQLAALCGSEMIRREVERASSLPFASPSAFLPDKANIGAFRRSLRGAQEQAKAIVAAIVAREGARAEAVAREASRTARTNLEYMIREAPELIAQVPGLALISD
Briefly: EMSA. As to conditions: EMSA: 50 mM Tris-HCl pH 8, 150 mM NaCl, 30 nM DNA, 30 min at room temperature; gel 6% or 12% PAGE in TBE at 4 C. On the technique in general: Mobility shift assays separate free from complexed probe on a gel.

The values below come from publication PMC7797058, “Characterization of the first tetrameric transcription factor of the GntR superfamily with allosteric regulation from the bacterial pathogen Agrobacterium fabrum” (Nucleic Acids Research, 2020).

For the sequence “AAGCGCCTGAACTGATTGCGCAGGTTCCGGGTCTCGCACTCATCAGCGACTAAGCGGCGGAAATCGCTGCAAATCCAGGGGTGGCGCCTTTTGGCGCCGCCTTTATTTTTGTCGACACCCTCCCTGACGCGGTAATTTTGCGCTTGCAATTTATCAAAGCACAGCGTTTCATGTATACATAGATGCGATTGCCAGGGAGGAGATGACAATGGCAAATTCCAGTCTGACCGAGGTTTTGAAGCAATATCCGAACCCCGTTGAAATGCTC (double strand) [Patu1420]”, the binding entry is reported as “binds”.
